Measurements taken from patent US8173771B2, “Humanin receptor or humanin-like polypeptide receptor” (Keio Univeristy, priority 2005, dated 2012).

Test system: primary cortical neurons (PCNs)
Experiment: Aβ neurotoxicity in primary cortical neurons, WST-8 / Calcein / LDH
Format: cell-based, mouse
Conditions: 25 μM Aβ; for inhibition of neurotoxicity by Aβ: cytokine alone, physiological levels (up to 100 ng/ml)
Method: B) PCNs were incubated with 25 μM Aβ (upper) in the presence of 10 μg of recombinant soluble human gp130 (lower “+”) or BSA (lower “−”). Cell viability was determined by WST-8 assay (upper) or Calcein fluorescence assay (lower) at 72 hr after the onset of treatment with Aβ.
C) PCNs were incubated with 25 μM Aβ (1-43) in the presence of 1 μg of neutralizing anti-mouse gp130 antibody (RX435) or control IgG. Cell viability and cell mortality were determined by Calcein fluorescence (left panel) and LDH assays (right panel), respectively, at 72 hr after the onset of treatment with Aβ (1-43).
[…] At 72 hr after incubation, the cells were harvested for WST-8 assays or/and Calcein fluorescence assays to show cell viability.
B) The soluble IL-6 receptor-α (sIL-6R) or the soluble CNTF-R (100 ng/ml) were added to the cells as in the above A), followed by the stimulation with its ligand, IL-6 or CNTF (100 ng/ml), respectively to show the effects on the neuronal cell death due to Aβ. The right and left graphs show the cell viabilities determined by WST-8 assays and Calcein fluorescence assays, respectively.
C) The neutralizing antibodies (1 μg) for the mouse gp130, mouse LIFR, mouse IL-11R and rat CNTF-R were added as in the above A), and cell viability was determined by Calcein fluorescence assays after 72 hours.
WST-8 assay was performed at 72 hrs after the treatment.
The primary culture of mouse cortical neurons was prepared as described previously (Sudo et al., 2000). Briefly, primary cortical neurons, obtained from embryonic day 14 (E14) ICR mice were seeded in poly-L-lysine-coated 96 well plates (Sumitomo Bakelite) at 2.5 or 5.0×10^4 cells/well in Neuron Medium (Sumitomo Bakelite) (Hashimoto et al., 2003; Niikura et al., 2004). Purity of neurons by this method was >98%. After 3 days, the culture medium was replaced with DMEM with N2 supplement. On the fourth day in vitro, 25 μM of Aβ (1-42) was added in association with indicated concentrations of HN or cytokines in the presence or the absence of soluble cytokine receptors or neutralizing antibodies. At 72 hrs after the onset of treatment, cell viability was assessed by WST-8 assay and/or Calcein fluorescence assay and cell mortality was assessed by the Trypan blue exclusion assay and LDH assay (Hashimoto et al, 2000, 2001 a b, 2003).

B1: IL-11: recombinant cytokine of the IL-6 family (protein, UniProt P47873 22-199, looked up)
Interleukin-11: PGPPAGSPRVSSDPRADLDSAVLLTRSLLADTRQLAAQMRDKFPADGDHSLDSLPTLAMSAGTLGSLQLPGVLTRLRVDLMSYLRHVQWLRRAGGPSLKTLEPELGALQARLERLLRRLQLLMSRLALPQAAPDQPVIPLGPPASAWGSIRAAHAILGGLHLTLDWAVRGLLLLKTRL
  inhibition of neurotoxicity by Aβ: did not inhibit

B2: CT-1: mouse cardiotropin-1, recombinant cytokine (protein, UniProt Q60753 1-203, looked up)
Cardiotrophin-1: MSQREGSLEDHQTDSSISFLPHLEAKIRQTHNLARLLTKYAEQLLEEYVQQQGEPFGLPGFSPPRLPLAGLSGPAPSHAGLPVSERLRQDAAALSVLPALLDAVRRRQAELNPRAPRLLRSLEDAARQVRALGAAVETVLAALGAAARGPGPEPVTVATLFTANSTAGIFSAKVLGFHVCGLYGEWVSRTEGDLGQLVPGGVA
  inhibition of neurotoxicity by Aβ: did not inhibit

B3: recombinant soluble human gp130: recombinant soluble human gp130 consisting of the extracellular domain of human gp130; dominant-negative form (protein, UniProt P40189 23-619, looked up)
extracellular domain: ELLDPCGYISPESPVVQLHSNFTAVCVLKEKCMDYFHVNANYIVWKTNHFTIPKEQYTIINRTASSVTFTDIASLNIQLTCNILTFGQLEQNVYGITIISGLPPEKPKNLSCIVNEGKKMRCEWDGGRETHLETNFTLKSEWATHKFADCKAKRDTPTSCTVDYSTVYFVNIEVWVEAENALGKVTSDHINFDPVYKVKPNPPHNLSVINSEELSSILKLTWTNPSIKSVIILKYNIQYRTKDASTWSQIPPEDTASTRSSFTVQDLKPFTEYVFRIRCMKEDGKGYWSDWSEEASGITYEDRPSKAPSFWYKIDPSHTQGYRTVQLVWKTLPPFEANGKILDYEVTLTRWKSHLQNYTVNATKLTVNLTNDRYLATLTVRNLVGKSDAAVLTIPACDFQATHPVMDLKAFPKDNMLWVEWTTPRESVKKYILEWCVLSDKAPCITDWQQEDGTVHRTYLRGNLAESKCYLITVTPVYADGPGSPESIKAYLKQAPPSKGPTVRTKKVGKNEAVLEWDQLPVDVQNGFIRNYTIFYRTIIGNETAVNVDSSHTEYTLSSLTSDTLYMVRMAAYTDEGGKDGPEFTFTTPKFAQGEIE
modifications: extracellular domain
notes: recombinant soluble human gp130 consisting of the extracellular domain of human gp130; dominant-negative form
PCNs
  effect on HN-mediated neuroprotection: complete suppression

B4: OSM: human OncostatinM, recombinant cytokine (protein, UniProt P13725 26-221, looked up)
Oncostatin-M: AAIGSCSKEYRVLLGQLQKQTDLMQDTSRLLDPYIRIQGLDVPKLREHCRERPGAFPSEETLRGLGRRGFLQTLNATLGCVLHRLADLEQRLPKAQDLERSGLNIEDLEKLQMARPNILGLRNNIYCMAQLLDNSDTAEPTKAGRGASQPPTPTPASDAFQRKLEGCRFLHGYHRFMHSVGRVFSKWGESPNRSRR
  inhibition of neurotoxicity by Aβ: did not inhibit
